Experiments:
native gel or EMSA = biological target: the molecule itself; assay: native gel or EMSA
SEC = biological target: the molecule itself; assay: SEC

B1: recombinant GRXS17 (glutaredoxin GRXS17, Arabidopsis thaliana) (natural protein, UniProt Q9ZPH2 1-488, looked up)
chain: MSGTVKDIVSKAELDNLRQSGAPVVLHFWASWCDASKQMDQVFSHLATDFPRAHFFRVEAEEHPEISEAYSVAAVPYFVFFKDGKTVDTLEGADPSSLANKVGKVAGSSTSAEPAAPASLGLAAGPTILETVKENAKASLQDRAQPVSTADALKSRLEKLTNSHPVMLFMKGIPEEPRCGFSRKVVDILKEVNVDFGSFDILSDNEVREGLKKFSNWPTFPQLYCNGELLGGADIAIAMHESGELKDAFKDLGITTVGSKESQDEAGKGGGVSSGNTGLSETLRARLEGLVNSKPVMLFMKGRPEEPKCGFSGKVVEILNQEKIEFGSFDILLDDEVRQGLKVYSNWSSYPQLYVKGELMGGSDIVLEMQKSGELKKVLTEKGITGEQSLEDRLKALINSSEVMLFMKGSPDEPKCGFSSKVVKALRGENVSFGSFDILTDEEVRQGIKNFSNWPTFPQLYYKGELIGGCDIIMELSESGDLKATLSE
stoichiometry N (native gel or EMSA): 2

B2: recombinant GRXS17-C33S (natural protein, Arabidopsis thaliana, UniProt Q9ZPH2 1-488, looked up)
chain: MSGTVKDIVSKAELDNLRQSGAPVVLHFWASWSDASKQMDQVFSHLATDFPRAHFFRVEAEEHPEISEAYSVAAVPYFVFFKDGKTVDTLEGADPSSLANKVGKVAGSSTSAEPAAPASLGLAAGPTILETVKENAKASLQDRAQPVSTADALKSRLEKLTNSHPVMLFMKGIPEEPRCGFSRKVVDILKEVNVDFGSFDILSDNEVREGLKKFSNWPTFPQLYCNGELLGGADIAIAMHESGELKDAFKDLGITTVGSKESQDEAGKGGGVSSGNTGLSETLRARLEGLVNSKPVMLFMKGRPEEPKCGFSGKVVEILNQEKIEFGSFDILLDDEVRQGLKVYSNWSSYPQLYVKGELMGGSDIVLEMQKSGELKKVLTEKGITGEQSLEDRLKALINSSEVMLFMKGSPDEPKCGFSSKVVKALRGENVSFGSFDILTDEEVRQGIKNFSNWPTFPQLYYKGELIGGCDIIMELSESGDLKATLSE
binding result (SEC): binds

B3: recombinant GRXS17-C33S/C179S/C309S/C416S (natural protein, Arabidopsis thaliana, UniProt Q9ZPH2 1-488, looked up)
chain: MSGTVKDIVSKAELDNLRQSGAPVVLHFWASWSDASKQMDQVFSHLATDFPRAHFFRVEAEEHPEISEAYSVAAVPYFVFFKDGKTVDTLEGADPSSLANKVGKVAGSSTSAEPAAPASLGLAAGPTILETVKENAKASLQDRAQPVSTADALKSRLEKLTNSHPVMLFMKGIPEEPRSGFSRKVVDILKEVNVDFGSFDILSDNEVREGLKKFSNWPTFPQLYCNGELLGGADIAIAMHESGELKDAFKDLGITTVGSKESQDEAGKGGGVSSGNTGLSETLRARLEGLVNSKPVMLFMKGRPEEPKSGFSGKVVEILNQEKIEFGSFDILLDDEVRQGLKVYSNWSSYPQLYVKGELMGGSDIVLEMQKSGELKKVLTEKGITGEQSLEDRLKALINSSEVMLFMKGSPDEPKSGFSSKVVKALRGENVSFGSFDILTDEEVRQGIKNFSNWPTFPQLYYKGELIGGCDIIMELSESGDLKATLSE
stoichiometry N (SEC): 2

— paper doi:10.1101/2020.01.07.896506 (bioRxiv, 2020)
